# Biological target: Clumping factor A (ClfA) (Staphylococcus aureus NRS384 (USA300)) (UniProt Q2G015)
# Assay: filter
# Conditions: BndU at every n (W); full-length clone also has fixed flanking regions not printed [BndU at 2,4,7,8,14,20,21,27,29,32,33,34,35,36,40]; SB18T, 5 mM MgCl2; full-length aptamer
# Chain of Clumping factor A (ClfA) (Staphylococcus aureus NRS384 (USA300)) (Q2G015 40-893): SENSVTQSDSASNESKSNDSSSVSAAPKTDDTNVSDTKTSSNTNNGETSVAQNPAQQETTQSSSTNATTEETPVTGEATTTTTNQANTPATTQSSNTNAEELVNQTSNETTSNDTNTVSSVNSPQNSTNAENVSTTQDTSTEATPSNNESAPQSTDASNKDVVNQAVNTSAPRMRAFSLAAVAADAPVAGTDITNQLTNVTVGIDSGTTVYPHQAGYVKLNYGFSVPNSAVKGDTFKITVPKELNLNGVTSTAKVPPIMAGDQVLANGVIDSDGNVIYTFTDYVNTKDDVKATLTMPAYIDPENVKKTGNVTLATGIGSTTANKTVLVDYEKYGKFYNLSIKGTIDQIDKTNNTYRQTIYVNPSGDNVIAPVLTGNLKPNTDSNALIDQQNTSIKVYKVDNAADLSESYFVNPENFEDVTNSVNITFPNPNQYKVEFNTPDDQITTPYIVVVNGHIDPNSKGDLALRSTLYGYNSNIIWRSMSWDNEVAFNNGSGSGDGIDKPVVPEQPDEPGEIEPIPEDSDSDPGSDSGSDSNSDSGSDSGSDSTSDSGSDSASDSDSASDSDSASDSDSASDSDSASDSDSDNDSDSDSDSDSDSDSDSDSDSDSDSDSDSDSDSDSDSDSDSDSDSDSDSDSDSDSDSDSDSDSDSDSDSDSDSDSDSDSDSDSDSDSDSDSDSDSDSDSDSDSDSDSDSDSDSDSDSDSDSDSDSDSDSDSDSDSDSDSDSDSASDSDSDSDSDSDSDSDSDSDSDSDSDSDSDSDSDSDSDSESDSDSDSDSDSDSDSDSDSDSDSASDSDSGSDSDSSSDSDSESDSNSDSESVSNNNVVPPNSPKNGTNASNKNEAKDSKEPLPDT
sequence,measurement,value
ATCTGGTTCAAAGTGGCGATTGGGCATCTGGTTTTTAAGT [4503-73],Kd,0.79 nM
